Earlier results, collected in patent US20240247069A1, “FGFR3 BINDING MOLECULES AND METHODS OF USE THEREOF” (Regeneron Pharmaceuticals, Inc., priority 2023, published 2024).
Substitutions are numbered along the chain they refer to. Read-outs that look alike come from different tables or passages of the source.

B1: MS-Pro-54: anti-FGFR3 Ig-like domain 3 antibody of WO 2002/102972 A2; VH SEQ ID NO:42, VL SEQ ID NO:43 (antibody, V domains shown)
VH: QVQLVQSGAEVKKPGASVKVSCKASGYTFTSYYMHWVRQAPGQGLEWMGWINPNSGGTNYAQKFQGRVTMTRDTSISTAYMELSSLRSEDTAVYYCARNMAYTNYQYVNMPHFDYWGQGTLVTVSS
VL: DIELTQPPSVSVAPGQTARISCSGDALGDKYASWYQQKPGQAPVLVIYDDSDRPSGIPERFSGSNSGNTATLTISGTQAEDEADYCQSYDYFKLVFGGGTKLTVLGQ
B2: MS-Pro-55: anti-FGFR3 Ig-like domain 3 antibody of WO 2002/102972 A2; VH SEQ ID NO:44, VL SEQ ID NO:45 (antibody, V domains shown)
VH: QVQLVQSGAEVKKPGASVKVSCKASGYTFTSYYMHWVRQAPGQGLEWMGWINPNSGGTNYAQKFQGRVTMTRDTSISTAYMELSSLRSEDTAVYYCARSMNSTMYWYLRRVLFDHWGQGTLVTVSS
VL: DIALTQPASVSGSPGQSITISCTGTSSDVGGYNYVSWYQQHPGKAPKLMIYDVSNRPSGVSNRFSGSKSGNTASLTISGLQAEDEADYYCQSYDMYNYIVFGGGTKLTVLGQ
B3: PRQ-001: anti-FGFR3 domain 2 antibody of WO 2006/048877 A2; VH SEQ ID NO:46, VL SEQ ID NO:29 (antibody, V domains shown)
VH: QVQLQQSGPGLVKPSQTLSLTCAISGDSVSSNSAAWNWIRQSPGRGLEWLGRTYYRSKWYNDYAVSVKSRITINPDTSKNQFSLQLNSVTPEDTAVYYCARSYYPDFDYWGQGTLVTVSS
VL: DIELTQPPSVSVAPGQTARISCSGDALGDKYASWYQQKPGQAPVLVIYDDSDRPSGIPERFSGSNSGNTATLTISGTQAEDEADYYCQSYDGPDLWVFGGGTKLTVLGQ
B4: PRQ-002: anti-FGFR3 domain 2 antibody of WO 2006/048877 A2; VH SEQ ID NO:24, VL SEQ ID NO:25 (antibody, V domains shown)
VH: QVQLVQSGAEVKKPGASVKVSCKASGYTFTSYYMHWVRQAPGQGLEWMGWINPNSGGTNYAQKFQGRVTMTRDTSISTAYMELSSLRSEDTAVYYCARDFLGYEFDYWGQGTLVTVSS
VL: B3 VL with G92Y, P93S, D94A, L95D, W96Y
B5: PRQ-012: anti-FGFR3 domain 2 antibody of WO 2006/048877 A2; VH SEQ ID NO:47, VL SEQ ID NO:27 (antibody, V domains shown)
VH: QVQLKESGPALVKPTQTLTLTCTFSGFSLSTSGVGVGWIRQPPGKALEWLALIDWDDDKYYSTSLKTRLTISKDTSKNQVVLTMTNMDPVDTATYYCARYHSWYEMGYYGSTVGYMFDYWGQGTLVTVSS
VL: DIELTQPPSVSVAPGQTARISCSGDALGDKYASWYQQKPGQAPVLVIYDDSDRPSGIPERFSGSNSGNTATLTISGTQAEDEADYYCQSYDFDFAVFGGGTKLTVLGQ
B6: PRQ-026: anti-FGFR3 IIIc antibody of WO 2006/048877 A2; VH SEQ ID NO:36, VL SEQ ID NO:37 (antibody, V domains shown)
VH: QVQLVQSGAEVKKPGASVKVSCKASGYTFTSYYMHWVRQAPGQGLEWMGWINPNSGGTNYAQKFQGRVTMTRDTSISTAYMELSSLRSEDTAVYYCARGYWYAYFTYINYGYFDNWGQGTLVTVSS
VL: DIALTQPASVSGSPGQSITISCTGTSSDVGGYNYVSWYQQHPGKAPKLMIYDVSNRPSGVSNRFSGSKSGNTASLTISGLQAEDEADYYCQSYDNNSDWFGGGTKLTVLGQ
B7: PRQ-029: anti-FGFR3 IIIc antibody of WO 2006/048877 A2; VH SEQ ID NO:40, VL SEQ ID NO:49 (antibody, V domains shown)
VH: QVQLVQSGAEVKKPGASVKVSCKASGYTFTSYYMHWVRQAPGQGLEWMGWINPNSGGTNYAQKFQGRVTMTRDTSISTAYMELSSLRSEDTAVYYCARTWQYSYFYYLDGGYYFDIWGQGTLVTVSS
VL: DIVLTQSPATLSLSPGERATLSCRASQSVSSSYLAWYQQKPGQAPRLLIYGASSRATGVPARFSGSGSGTDFTLTISSLEPEDFATYYCQQTNNAPVTFGQGTKVEIKRT
B8: MS-PRQ-12: anti-FGFR3 Ig-like domain 2 antibody of WO 2002/102972 A2; VH SEQ ID NO:26, VL SEQ ID NO:27 (antibody, V domains shown)
VH: QVQLKESGPALVKPQTLTLTCTFSGFSLSTSGVGVGWIRQPPGKALEWLALIDWDDDKYYSTSLKTRLTISKDTSKNQVVLTMTNMDPVDTATYYCARYHSWYEMGYYGSTVGYMFDYWGQGTLVTVSS
VL: B5 VL
B9: PRQ-054: anti-FGFR3 IIIc antibody of WO 2006/048877 A2; VH SEQ ID NO:42, VL SEQ ID NO:50 (antibody, V domains shown)
VH: B1 VH
VL: B5 VL with F92Y, D93F, F94K, A95L
B10: PRQ-055: anti-FGFR3 IIIc antibody of WO 2006/048877 A2; VH SEQ ID NO:44, VL SEQ ID NO:45 (antibody, V domains shown)
VH: B2 VH
VL: B2 VL
B11: 15D8: anti-FGFR3 domain 3 antibody of WO 2010/002862 A2; VH SEQ ID NO:51, VL SEQ ID NO:52 (antibody, V domains shown)
VH: EIQLQQSGPELVKPGASVKVSCKASGYAFTSYNMYWVKQSHGKSLEWIGYIDPYNGGTSYNQKFKGKATLTVDKSSSTAYMHLNSLTSEDSAVYYCAREGGNYEAWFAYWGQGTLVTVSA
VL: QIVLTQSPALMSASPGEKVTMTCSASSSVSYMYWYQQKPRSSPKPWIYLTSYLASGVPARFSGSGSGTSYSLTISSMEAEDAATYYCQQWSSYPLTFGAGTKLELK
B12: 27H2: anti-FGFR3 domain 3 antibody of WO 2010/002862 A2; VH SEQ ID NO:53, VL SEQ ID NO:54 (antibody, V domains shown)
VH: B11 VH with S59R, L70M
VL: B11 VL with Y52N, Y93N
B13: 2G4: anti-FGFR3 domain 3 antibody of WO 2010/002862 A2; VH SEQ ID NO:55, VL SEQ ID NO:54 (antibody, V domains shown)
VH: B11 VH with S59R, Y60D
VL: B11 VL with Y52N, Y93N
B14: 4E7(7D12): anti-FGFR3 domain 3 antibody of WO 2010/002862 A2; VH SEQ ID NO:56, VL SEQ ID NO:54 (antibody, V domains shown)
VH: B11 VH with S59R
VL: B11 VL with Y52N, Y93N
B15: 20B4: anti-FGFR3 domain 3 antibody of WO 2010/002862 A2; VH SEQ ID NO:57, VL SEQ ID NO:58 (antibody, V domains shown)
VH: EIQLQQSGPELVKPGASVKVSCKASGYSLTDYNMYWVKQSHGKSLEWIGYIDPYNGGTSYNQKFKGKATLTVDKSSSTAFMHLNSLTSEDSAVYYCARSLGPDFDYWGQGTTLTVSS
VL: QIVLTQSPAIMSASPGEKVTMTCSASSSVNYMHWYQQKSGTSPKRWIYDTSKLASGVPARFSGSGSGTSYSLTISSMEAEDTATYYCQQWNSNPLTFGAGTKLELK
B16: Hu15D8: anti-FGFR3 domain 3 antibody of WO 2010/002862 A2; VH SEQ ID NO:59, VL SEQ ID NO:60 (antibody, V domains shown)
VH: EVQLVQSGAEVKKPGESLKISCKGSGYSFTSYNMYWVRQMPGKGLEWMGYIDPYNGGTSYNQKFKGKATLTVDKSISTAYLQWSSLKASDTAMYYCAREGGNYEAWFAYWGQGTLVTVSS
VL: DIQLTQSPSSLSASVGDRVTITCSASSSVSYMYWFQQKPGKAPKPLIYLTSYLASGVPSRFSGSGSGTDFTLTISSLQPEDFATYYCQQWSSYPLTFGGGTKVEIK
B17: VH: SEQ ID NO: 7 of PCT Publication No: WO 2010/048026 A2: unnamed anti-FGFR3 Ig-like domain 2 antibody of WO 2010/048026 A2; VH SEQ ID NO:61, VL SEQ ID NO:62 (antibody, V domains shown)
VH: EVQLVQSGAEVKKPGASVKVSCKASGYMFTSYGISWVRQAPGQGLEWMGWVSTYNGDTNYAQKFQGRVTVTTDTSTSTAYMELRSLRSEDTAVYYCARVLGYYDSIDGYYYGMDVWGQGTTVTVSS
VL: QSVLTQPPSLSVAPGKTATFTCGGNNIGDKSVHWYRQKPGQAPVLVMYLDTERPSGIPERMSGSNFGNTATLTITRVEAEDEADYYCQVWDSGSDHVVFGGGTKLTVLG

Test system: FGFR3
[1] = Table T-3, exemplary FGFR3 D3 binding sequences from cited PCT publications
[2] = literature antibodies, sequences from cited PCT publications

Molecule	Activity [1]	Activity [2]
B1	Antagonistic	Antagonistic
B2	Antagonistic	Antagonistic
B3	–	Antagonistic
B4	–	Antagonistic
B5	–	Antagonistic
B6	Antagonistic	Antagonistic
B7	Antagonistic	Antagonistic
B8	–	Antagonistic
B9	Antagonistic	Antagonistic
B10	Antagonistic	Antagonistic
B11	Antagonistic	Antagonistic
B12	Antagonistic	Antagonistic
B13	Antagonistic	Antagonistic
B14	Antagonistic	Antagonistic
B15	Antagonistic	Antagonistic
B16	Antagonistic	Antagonistic
B17	–	Antagonistic
